Source: PMC10315065 (Journal of Innate Immunity, 2023)

Biological target: human glyceraldehyde-3-phosphate dehydrogenase (GAPDH) (human, UniProt P04406 1-335, fluorescent dye NT-647 (Monolith NT Protein Labeling Kit RED-NHS))
Experiment: MST

human glyceraldehyde-3-phosphate dehydrogenase (GAPDH), sequence (P04406 whole entry): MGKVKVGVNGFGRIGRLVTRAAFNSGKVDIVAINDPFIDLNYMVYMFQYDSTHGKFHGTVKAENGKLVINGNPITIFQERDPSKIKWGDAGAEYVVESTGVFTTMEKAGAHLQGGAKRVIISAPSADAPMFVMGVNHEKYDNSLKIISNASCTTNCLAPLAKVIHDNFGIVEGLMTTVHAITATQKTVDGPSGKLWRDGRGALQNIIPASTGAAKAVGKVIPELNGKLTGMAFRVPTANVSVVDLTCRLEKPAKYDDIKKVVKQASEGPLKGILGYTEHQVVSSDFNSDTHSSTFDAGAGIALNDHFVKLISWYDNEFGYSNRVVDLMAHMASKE

For GLLRKGGEKIGEKLKKIGQKIKNFFQKLVPQPEQ [Mouse cathelicidin-related antimicrobial peptide], the Kd was 472 nM.
